In paper PMC3730827 (Cell, 2013):

Experiments:
Assay in all cases: cryo-EM structure
[1] = target: ribosomal protein S23e (rabbit 40S subunit) (rabbit, UniProt G1SZ47 1-143)
[2] = target: ribosomal protein S10e (rabbit 40S subunit) (rabbit, UniProt G1T168 1-165)
[3] = target: ribosomal protein S3e (rabbit 40S subunit) (rabbit, UniProt G1TNM3 1-243)
[4] = target: ribosomal protein S12e (rabbit 40S subunit) (rabbit, UniProt G1SFR8 1-132)

Measured: binding result

B1: DHX29, recombinant human (enzyme)
chain: MGGKNKKHKAPAAAVVRAAVSASRAKSAEAGIAGEAQSKKPVSRPATAAAAAAGSREPRVKQGPKIYSFNSTNDSSGPANLDKSILKVVINNKLEQRIIGVINEHKKQNNDKGMISGRLTAKKLQDLYMALQAFSFKTKDIEDAMTNTLLYGGDLHSALDWLCLNLSDDALPEGFSQEFEEQQPKSRPKFQSPQIQATISPPLQPKTKTYEEDPKSKPKKEEKNMEVNMKEWILRYAEQQNEEEKNENSKSLEEEEKFDPNERYLHLAAKLLDAKEQAATFKLEKNKQGQKEAQEKIRKFQREMETLEDHPVFNPAMKISHQQNERKKPPVATEGESALNFNLFEKSAAATEEEKDKKKEPHDVRNFDYTARSWTGKSPKQFLIDWVRKNLPKSPNPSFEKVPVGRYWKCRVRVIKSEDDVLVVCPTILTEDGMQAQHLGATLALYRLVKGQSVHQLLPPTYRDVWLEWSDAEKKREELNKMETNKPRDLFIAKLLNKLKQQQQQQQQHSENKRENSEDPEESWENLVSDEDFSALSLESANVEDLEPVRNLFRKLQSTPKYQKLLKERQQLPVFKHRDSIVETLKRHRVVVVAGETGSGKSTQVPHFLLEDLLLNEWEASKCNIVCTQPRRISAVSLANRVCDELGCENGPGGRNSLCGYQIRMESRACESTRLLYCTTGVLLRKLQEDGLLSNVSHVIVDEVHERSVQSDFLLIILKEILQKRSDLHLILMSATVDSEKFSTYFTHCPILRISGRSYPVEVFHLEDIIEETGFVLEKDSEYCQKFLEEEEEVTINVTSKAGGIKKYQEYIPVQTGAHADLNPFYQKYSSRTQHAILYMNPHKINLDLILELLAYLDKSPQFRNIEGAVLIFLPGLAHIQQLYDLLSNDRRFYSERYKVIALHSILSTQDQAAAFTLPPPGVRKIVLATNIAETGITIPDVVFVIDTGRTKENKYHESSQMSSLVETFVSKASALQRQGRAGRVRDGFCFRMYTRERFEGFMDYSVPEILRVPLEELCLHIMKCNLGSPEDFLSKALDPPQLQVISNAMNLLRKIGACELNEPKLTPLGQHLAALPVNVKIGKMLIFGAIFGCLDPVATLAAVMTEKSPFTTPIGRKDEADLAKSALAMADSDHLTIYNAYLGWKKARQEGGYRSEITYCRRNFLNRTSLLTLEDVKQELIKLVKAAGFSSSTTSTSWEGNRASQTLSFQEIALLKAVLVAGLYDNVGKIIYTKSVDVTEKLACIVETAQGKAQVHPSSVNRDLQTHGWLLYQEKIRYARVYLRETTLITPFPVLLFGGDIEVQHRERLLSIDGWIYFQAPVKIAVIFKQLRVLIDSVLRKKLENPKMSLENDKILQIITELIKTENN
binds: all assays above
